Literature values, collected in article PMC9079180.

Target: tau (Homo sapiens)

Hsp70, sequence (P0A6Z0 2-638): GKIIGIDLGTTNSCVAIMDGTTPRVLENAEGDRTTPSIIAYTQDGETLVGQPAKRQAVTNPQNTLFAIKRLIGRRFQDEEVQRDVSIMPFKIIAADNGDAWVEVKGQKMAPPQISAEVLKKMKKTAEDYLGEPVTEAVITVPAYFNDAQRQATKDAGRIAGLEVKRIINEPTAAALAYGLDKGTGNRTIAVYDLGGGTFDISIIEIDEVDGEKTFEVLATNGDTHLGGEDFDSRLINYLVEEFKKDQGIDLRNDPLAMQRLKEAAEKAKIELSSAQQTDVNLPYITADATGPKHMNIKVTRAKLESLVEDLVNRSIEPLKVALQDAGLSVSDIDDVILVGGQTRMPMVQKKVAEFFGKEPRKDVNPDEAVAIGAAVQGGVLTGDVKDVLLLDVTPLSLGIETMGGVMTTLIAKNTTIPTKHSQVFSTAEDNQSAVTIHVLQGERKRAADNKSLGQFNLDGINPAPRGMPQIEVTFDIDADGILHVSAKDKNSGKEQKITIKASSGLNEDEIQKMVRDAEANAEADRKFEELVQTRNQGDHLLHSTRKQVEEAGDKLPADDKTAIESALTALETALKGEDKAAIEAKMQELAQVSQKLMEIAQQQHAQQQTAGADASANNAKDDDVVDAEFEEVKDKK

Kd: 0.4 µM
Substance: Hsp70 (from UniProt P0A6Z0)
